Assay [1] concerns the target T1, Full-length human V5-tagged PCSK9 (human, UniProt Q8NBP7 31-692, limits assumed).
T1 construct: Expressed from pIRES2-EGFP in transfected cells. proPCSK9 and mature forms were both seen in the IPs; also called PCSK9-V5; wild-type PCSK9-V5
In words: co-IP from transfected HEK293 cells, immunoblot. The protocol:
All other Co-IP experiments were performed as described without the cross-linking step and in SDS-deprived RIPA buffer. HA-tagged proteins and GRP94 were immunoprecipitated with mouse anti-HA-tag (1:500; Cat. #H3663, Sigma-Aldrich) or rat anti-Grp94 (9G10, 1:1000; Cat. #ADI-SPA-850, Enzo Life Sciences).
We next decided to map GRP94 domain(s) important for PCSK9 protein-protein interaction. The overall domain structure of GRP94 includes a signal polypeptide (amino acids; aa1-21) followed by a N-terminal enzymatic ATP-binding domain (aa22-651), client-binding domain (CBD; aa652-678), C-terminal dimerization domain (aa679-799) and a KDEL polypeptide sequence (aa800-803) allowing retention of GRP94 in the endoplasmic reticulum. (Dollins et al., 2007; Maki et al., 1990; Wu et al., 2012) Thus, we first generated cDNA constructs encoding secretable HA-tagged forms of human GRP94 lacking its C-terminal KDEL polypeptide (SEQ ID. NO. 66; FIG. 2). HEK293 cells were transfected without or with SEQ ID. NO. 66 in absence or presence of PCSK9-V5 (FIG. 2a). […] NO. 66 is well expressed (Input; IB: HA) and secreted into media and that SEQ ID. NO. 66 interacts in complex with PCSK9 following immunoprecipitation (IP: V5; FIG. 2b). […] It was reported that a 27 aa C-terminal hydrophobic loop structure within GRP94 client-binding domain (CBD, amino acids aa652-678; ⁶⁵²[…], SEQ ID. NO. 4) was important for folding and interaction with Toll-like receptors and integrins. (Wu et al., 2012) Deletion or alanine-scan mutations in SEQ ID. NO. […] (Wu et al., 2012) Similarly, we generated two mutated constructs in which critical residues within the GRP94-CBD domain where mutated into alanine (AA1: ⁶⁵²[…], SEQ ID. NO. 78 and AA2: ⁶⁵²[…], SEQ ID. NO. 79). HEK293 cells were transfected with either an empty vector (−) or with SEQ ID. NO. 66, 64 or 65 constructs in presence or absence of PCSK9-V5 (FIG. 2b).
On the technique in general: A western blot detects proteins with antibodies after separation by electrophoresis.

Assay [2] concerns the target T2, Recombinant PCSK9-His6 of the Circulex in vitro competitive binding assay (human, UniProt Q8NBP7 31-692, limits assumed).
T2 construct: also called WT PCSK9; wild-type human recombinant His-tagged PCSK9; not shown: His tag
In words: solid phase PCSK9-LDLR EGF-AB in vitro competitive binding assay (Circulex CY-8150), 100 ng (13.46 nM) PCSK9-His6 with increasing SEQ ID NO. 6. The protocol:
Solid phase PCSK9-LDLR epidermal growth factor precursor homology domain A and B (LDLR EGF-AB) in vitro competitive binding assay (Circulex; Cat. #CY-8150) was performed with 100 ng (13.46 nM) of recombinant PCSK9-His6 together with increasing amount of recombinant SEQ ID NO. 6 according to manufacturer's recommendations. Using this in vitro competitive assay, SEQ ID NO.

T1 sequence (Q8NBP7 31-692 limits assumed): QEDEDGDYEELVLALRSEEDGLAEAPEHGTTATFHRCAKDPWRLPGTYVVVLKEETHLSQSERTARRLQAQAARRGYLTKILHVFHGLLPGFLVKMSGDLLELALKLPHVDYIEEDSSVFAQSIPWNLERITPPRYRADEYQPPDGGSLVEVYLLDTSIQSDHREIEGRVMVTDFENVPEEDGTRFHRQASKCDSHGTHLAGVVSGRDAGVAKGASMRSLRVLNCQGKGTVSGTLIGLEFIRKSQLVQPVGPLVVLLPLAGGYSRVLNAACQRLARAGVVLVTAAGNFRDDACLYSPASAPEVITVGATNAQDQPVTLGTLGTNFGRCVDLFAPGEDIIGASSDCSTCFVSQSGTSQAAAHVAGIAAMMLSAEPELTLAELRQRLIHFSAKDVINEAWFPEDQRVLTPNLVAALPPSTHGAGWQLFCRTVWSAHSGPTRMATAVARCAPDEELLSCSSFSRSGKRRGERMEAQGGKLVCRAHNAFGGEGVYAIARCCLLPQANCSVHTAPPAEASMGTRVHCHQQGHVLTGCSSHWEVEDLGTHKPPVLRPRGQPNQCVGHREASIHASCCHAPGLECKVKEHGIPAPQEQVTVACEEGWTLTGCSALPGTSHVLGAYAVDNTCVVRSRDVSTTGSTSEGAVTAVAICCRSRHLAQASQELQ
T2 sequence (Q8NBP7 31-692 limits assumed): as above

B1: SEQ ID NO 64, alanine-scanning mutant of GRP94 lacking KDEL (taken as AA1) (other)
chain: DDEVDVDGTVEEDLGKSREGSRTDDEVVQREEEAIQLDGLNASQIRELREKSEKFAFQAEVNRMMKLIINSLYKNKEIFLRELISNASDALDKIRLISLTDENALSGNEELTVKIKCDKEKNLLHVTDTGVGMTREELVKNLGTIAKSGTSEFLNKMTEAQEDGQSTSELIGQFGVGFYSAFLVADKVIVTSKHNNDTQHIWESDSNEFSVIADPRGNTLGRGTTITLVLKEEASDYLELDTIKNLVKKYSQFINFPIYVWSSKTETVEEPMEEEEAAKEEKEESDDEAAVEEEEEEKKPKTKKVEKTVWDWELMNDIKPIWQRPSKEVEEDEYKAFYKSFSKESDDPMAYIHFTAEGEVTFKSILFVPTSAPRGLFDEYGSKKSDYIKLYVRRVFITDDFHDMMPKYLNFVKGVVDSDDLPLNVSRETLQQHKLLKVIRKKLVRKTLDMIKKIADDKYNDTFWKEFGTNIKLGVIEDHSNRTRLAKLLRFQSSHHPTDITSLDQYVERMKEKQDKIYFMAGSSRKEAESSPFVERLLKKGYEVIYLTEPVDEYCIQALPEFDGKRFQNVAKEGVKFDESEKTKESREAVEKEFEPLLNWMKDKALKDKIEKAVVSQRLTESPCALVASQYAASAAAAAIMKAQAYQTGKDISTNYYASQKKTFEINPRHPLIRDMLRRIKEDEDDKTVLDLAVVLFETATLRSGYLLPDTKAYGDRIERMLRLSLNIDPDAKVEEEPEEEPEETAEDTTEDTEQDEDEEMDVGTDEEEETAKESTAEYPYDVPDYA
For B1, the binding result in assay [1] is listed as “no binding”.

B2: SEQ ID NO 65, alanine-scanning mutant of GRP94 lacking KDEL (taken as AA2) (other)
chain: DDEVDVDGTVEEDLGKSREGSRTDDEVVQREEEAIQLDGLNASQIRELREKSEKFAFQAEVNRMMKLIINSLYKNKEIFLRELISNASDALDKIRLISLTDENALSGNEELTVKIKCDKEKNLLHVTDTGVGMTREELVKNLGTIAKSGTSEFLNKMTEAQEDGQSTSELIGQFGVGFYSAFLVADKVIVTSKHNNDTQHIWESDSNEFSVIADPRGNTLGRGTTITLVLKEEASDYLELDTIKNLVKKYSQFINFPIYVWSSKTETVEEPMEEEEAAKEEKEESDDEAAVEEEEEEKKPKTKKVEKTVWDWELMNDIKPIWQRPSKEVEEDEYKAFYKSFSKESDDPMAYIHFTAEGEVTFKSILFVPTSAPRGLFDEYGSKKSDYIKLYVRRVFITDDFHDMMPKYLNFVKGVVDSDDLPLNVSRETLQQHKLLKVIRKKLVRKTLDMIKKIADDKYNDTFWKEFGTNIKLGVIEDHSNRTRLAKLLRFQSSHHPTDITSLDQYVERMKEKQDKIYFMAGSSRKEAESSPFVERLLKKGYEVIYLTEPVDEYCIQALPEFDGKRFQNVAKEGVKFDESEKTKESREAVEKEFEPLLNWMKDKALKDKIEKAVVSQRLTESPCALVASQYGWSGNMERIMKAQAYATGKAISTNAAASQKKTFEINPRHPLIRDMLRRIKEDEDDKTVLDLAVVLFETATLRSGYLLPDTKAYGDRIERMLRLSLNIDPDAKVEEEPEEEPEETAEDTTEDTEQDEDEEMDVGTDEEEETAKESTAEYPYDVPDYA
Turning to B2, in assay [1], the binding result is reported as “no binding”.

B3: Secretable ~20 kDa HA-tagged protein containing the CBD and C-terminal domains of GRP94 (CBD-CT; SEQ ID NO 46) (other)
chain: YGWSGNMERIMKAQAYQTGKDISTNYYASQKKTFEINPRHPLIRDMLRRIKEDEDDKTVLDLAVVLFETATLRSGYLLPDTKAYGDRIERMLRLSLNIDPDAKVEEEPEEEPEETAEDTTEDTEQDEDEEMDVGTDEEEETAKESTAEYPYDVPDYA
In the case of B3, in assay [1], the binding result is reported as “binds”.

B4: Recombinant SEQ ID NO 6, GRP94 CBD-CT (aa 652-799), His6 tag purified from E. coli (other)
chain: YGWSGNMERIMKAQAYQTGKDISTNYYASQKKTFEINPRHPLIRDMLRRIKEDEDDKTVLDLAVVLFETATLRSGYLLPDTKAYGDRIERMLRLSLNIDPDAKVEEEPEEEPEETAEDTTEDTEQDEDEEMDVGTDEEEETAKESTAE
notes: also called NO; 43; GRP94 CDB-CT domain; not shown: His6 tag from pET24b(+)
The term IC50 denotes the concentration at which inhibition is half-maximal. On to B4, for which, in assay [2], the IC50 is roughly 113 nM.
